The supplement of paper PMC9170038

Test system: MS2 coat protein
Assay: apparent KD of MS2 coat protein; designed switch direction (-1 OFF switch, 1 ON switch): 1; higher = weaker reporter binding
In short: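 The apparent KD reported per design is the median over clusters of curve fits to normalised cluster fluorescence. The RNA switches were transcribed on Illumina chips by stalled E. coli RNA polymerase. SNAP-549-labelled MS2 coat protein was titrated from 0.7 or 1.5 nM, doubling up to 3 µM, in Tris-HCl pH 7.5 buffer containing KCl, MgCl2, BSA, DTT, tRNA and Tween-20, with no input, 200 uM small-molecule ligand, or an oligonucleotide input.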

[1] = Eterna round: R95, input ligand: FMN 200 uM
[2] = Eterna round: R95, input ligand: microRNA oligo, concentration not stated
[3] = Eterna round: R95, input ligand: none
[4] = input ligand: microRNA oligo, concentration not stated

| Sequence | apparent KD of MS2 coat protein [1] [nM] | apparent KD of MS2 coat protein [2] [nM] | apparent KD of MS2 coat protein [3] [nM] | apparent KD of MS2 coat protein (input ligand: FMN 200 uM) [nM] | apparent KD of MS2 coat protein [4] [nM] | apparent KD of MS2 coat protein (input ligand: none) [nM] |
| --- | --- | --- | --- | --- | --- | --- |
| ACGCAGCUGGGUGAGGAUAUCGGUGGUAAAACAUGAGGAUCACCCAUGUCCGAAGCUCGGACUUCCGAGAAGGCGCCCGGCCGCA [Atbeatve] (puzzle: Same State 2) | 14.6 | 65.2 | 83.1 | – | – | – |
| CAGCGCUGUCGAGAGGAUAUGCGGUGAUGGACAUGAGGAUCACCCAUGUUAGCGACAGCAUCACGGCAGAAGGCUCUACCGCUGC [Soteed Omei mod 18] (puzzle: Same State 2) | 19.3 | 18.8 | 30.3 | – | – | – |
| AAGUAACAUGAGGAUCACCCAUGUGAGGUGAGCGUAGGAUAUCGAGGAGGAAGGGUAGGUCGAGAAGGACGAGAAG [JR_SS1_Sub096] (puzzle: Same State 1) | 127 | 162 | 247 | – | – | – |
| AGUCCAGCCUGAGCUGGACAAAUGCUUGUACAUGAGGAUCACCCAUGUAUGUACAAGCUUUUUGCUCGUCUUAAUAA [JL zipper 68] (Eterna round: R96, puzzle: Sensor for hsa-mir-208a) | – | – | – | 263 | 18.2 | 223 |
| AAUAACAAUUUAGGAUAUCGACAGCGAAACUCACGAGAAGGAGAUAAGAGGCUGGCCUCGCGCACAUGAGGAUCACCCAUGUCG [Eternabot solution 25] (Eterna round: R96, puzzle: Same State NG 1) | – | – | – | 38.1 | 29.8 | 41.1 |
| GCUCGUAUGAUGACCGACAUGAGGAUCACCCAUGUGUGUCGGUAGGAUAUCUAUAUUAAGGAUAUAGAGAAGGGCCGAACGAGC [SameState NG3 #17] (Eterna round: R96, puzzle: Same State NG 3) | – | – | – | 31.4 | 62.9 | 92.9 |
| GUUACAUGAGGAUCACCCAUGUAUGUGUGGGAGUAAGUGUCUUAGGAUAUCUAUUGUUUAAAUUAAGAGAAGGAAGAUUGUUGU [JMF's solution 13] (Eterna round: R96, puzzle: Same State NG 3) | – | – | – | 102 | 84.3 | 117 |
| GGAGCCAAGGCAGGAUAUUCAUAUUAAAUGACAUGAGGAUCACCCAUGUUGGCCAGAAGGCCAUGGGAGAAGGGCCAUGGCUCG [Xeonanis - 13 mod23] (Eterna round: R96, puzzle: Same State NG 2) | – | – | – | 41.3 | 127 | 166 |
| AUGCCCGUAGCACAGGAUAUCCGAGGCAAAACAUGAGGAUCACCCAUGUCAAACGAAAAUCCGAAGGAGAAGGGUGAACGGGCUC [Xeisquorat] (puzzle: Same State 2) | 12 | 11.8 | 9.59 | – | – | – |
| AUAGUUAGCAAAGGAUAUGGGAAAGGAAGUGUACCAGAAGGUUGGCUACUGGGCUUACAUGAGGAUCACCCAUGUCCCGGUAGC [PowerStrip SSNG 1.30] (Eterna round: R96, puzzle: Same State NG 1) | – | – | – | 14.6 | 14.2 | 15.4 |
| GGAGCCGGCACCGAGGAUAUUCAUAUUAAAACAUGAGGAUCACCCAUGUACCGGAGAACCGGUUGGGAGAAGGCGGAUCGGCUCG [Xeonanis - 24] (puzzle: Same State 2) | 35.4 | 333 | 596 | – | – | – |
| UUAAUUUACUGAGGAUAUCGUGUCGACUGAGUUGACAUGAGGAUCACCCAUGUGAGAAGUGGUAUCGAGAAGGCAGUUUUCAUA [JR_SSNG2_Sub024] (Eterna round: R96, puzzle: Same State NG 2) | – | – | – | 17.2 | 59 | 89.6 |
| GGAGAGAGAGCGCAGGAUAUUUAAGGAGAAACAUGAGGAUCACCCAUGUGAGAGAGAGAGGAGAGAGAGAAGGGUGAGAGAGAGG [Altered State 2-16 - Jieux - Same State 2] (puzzle: Same State 2) | 26.7 | 23.9 | 36.2 | – | – | – |
| UUUAGUUGCGGGCAGGAUAUGUAUUAAAAUACAUGAGGAUCACCCAUGUGCGGGUAUAACACCCGACAGAAGGGCCAAUCGCGAC [Laonerce] (Eterna round: R96, puzzle: Same State 2) | – | – | – | 24.5 | 256 | 278 |
| AAUCAACGCCGAGGAUAUCGGCCUACAUGAGGAUCACCCAUGUUGGGACAUAAAUUAAUCUCGGCUGAGAAGGCGGGAGUUGAC [Eternabot solution 38] (Eterna round: R96, puzzle: Same State NG 2) | – | – | – | 23 | 13.3 | 19.9 |
| UUGAGGAAUUAAGGAUAUUGAGUACAUAUGUUUAACAUGAGGAUCACCCAUGUGGGUUGCGGUAUCGAGAAGGUAAAUUACAAG [Mat - same State NG 2 - JL mod - D74] (Eterna round: R96, puzzle: Same State NG 2) | – | – | – | – | 97.8 | – |
| GGUAGGUUACUACCAAUACAUGAGGAUCACCCAUGUUAUCAUGAGGAUAUGGUACCUAUUUGGUACCAGAAGGCAUGUAUAAUU [Fiskers NG3ss - 19] (Eterna round: R96, puzzle: Same State NG 3) | – | – | – | 43.6 | 62.6 | 60.5 |
| CCAGGACAUGAGGAUCACCCAUGUGCUUAAUAUGGAGAAUCUCAGGAUAUCAUGAGGAUCACCCAUGAGAAGGGAGAUCCGAGG (Eterna round: R96, puzzle: Same State NG 3) | – | – | – | 144 | 118 | 152 |
| UGUACAUGAGGAUCACCCAUGUCUAGACAUGUUAAUAUAAUGUAGGAUAUAUAAUAUUUAAAUUAAUAGAAGGACAAUUUUUUU [JMF's solution 3] (Eterna round: R96, puzzle: Same State NG 3) | – | – | – | 147 | 115 | 234 |
| UUGAAGAAUUAAGGAUAUCGAGUACAUAUGUUUAACAUGAGGAUCACCCAUGUGGGUUGCGGUAUCGAGAAGGUAAAUUACAAG [JL SSNG2 1.43] (Eterna round: R96, puzzle: Same State NG 2) | – | – | – | 45.3 | 32 | 53.9 |
| GGAGCCGGCCUAGGAUAUUUCAUAAAAAUACAUGAGGAUCACCCAUGUAGGCCAGAAGGCCUUGGGAAGAAGGAGGUCGGCUCC [Loop Effect - U29] (Eterna round: R96, puzzle: Same State NG 2) | – | – | – | 10.7 | 15 | 17.3 |
| AGCCGAGACUGAGGAUAUUUUAAUCUACAUGAGGAUCACCCAUGUAACAACACGUGGUAGUGAUAGAAGAAGGCGGCUCGGCGC [Omei SS(NG)2 Cv1] (Eterna round: R96, puzzle: Same State NG 2) | – | – | – | 176 | 162 | 386 |
| GUAAUCGUUAUAGGAUAUCAUGAGGAUUACCCAUGAGAAGGGUGAUCCCGAUCCAUAUUCAGAAAAUGAAUGUGGAUAGAUUGC [Omei NG1 A] (Eterna round: R96, puzzle: Same State NG 1) | – | – | – | 46.8 | 20.6 | 55.4 |
| GGUGGGUUACUACCAACACAUGAGGAUCACCCAUGUUUUGGGAAGGAUAUGGUACCUAUUUGGUACCAGAAGGUCCAGUUGGUG [salish99_SSNG3_r04_703] (Eterna round: R96, puzzle: Same State NG 3) | – | – | – | 49.8 | 79.8 | 125 |
| UUGAAGAACUAAGGAUAUUGAAUACAUAUGUUUAACAUGAGGAUCACCCAUGUGGGUUGCGGUGUCGAGAAGGUAGAAUAAUAG [Mat - same State NG 2 - JL mod - D96] (Eterna round: R96, puzzle: Same State NG 2) | – | – | – | 185 | 148 | 272 |
| UGGAUGGUGAUAGGAUAUACAUGAGGAAUCCUCGUAGAAGGAUCACGACAUGAGGAUCACCCAUGUAGCCGUCCGUAGACGGCU [salish99_SSNG1_r04_004] (Eterna round: R96, puzzle: Same State NG 1) | – | – | – | 478 | 122 | 711 |
| GGCGUAUAAACAUGAGGAUCACCCAUGUUGCGGAGACGCAAUGAGGAUAUCGAUGGGUUUCCCGUCGAGAAGGCGUGGGUCGCC [JL SSNG3 3.95] (Eterna round: R96, puzzle: Same State NG 3) | – | – | – | 22.3 | 24.6 | 40.2 |
| UUGGGUUUGCGAGGAUAUCGUAUGUGAUUUGAACGAGAAGGCGCUAUUUAAAUUAUUUUAACAUAACAUGAGGAUCACCCAUGU [JR_SSNG1_Sub021] (Eterna round: R96, puzzle: Same State NG 1) | – | – | – | – | 14.2 | – |
| GGAGCCGGCCUAGGAUAUUUCAUGAAAAAACAUGAGGAUCACCCAUGUAGGCCAGAAGGCCUUGGGAAGAAGGAGGUCGGCUCC [Loop Effect - G24] (Eterna round: R96, puzzle: Same State NG 2) | – | – | – | 32.1 | 151 | 472 |
| UUGAAGAAUUAAGGAUAUUGAGUACAUAUGUUUAACAUGAGGAUCACCCAUGUGGGUUGCGGUAUCGAGAAGGUAAAUUAAUAG [Mat - same State NG 2 - JL mod - D66] (Eterna round: R96, puzzle: Same State NG 2) | – | – | – | 94.4 | 126 | 157 |
